Data from publication PMC5024086, “Fine-tuning of amino sugar homeostasis by EIIA^Ntr in Salmonella Typhimurium” (Scientific Reports, 2016).

B1: GlmS in solution (SEC-MALS) (enzyme, Salmonella Typhimurium, UniProt Q8ZKX1 1-609, looked up)
chain: MCGIVGAIAQRDVAEILLEGLRRLEYRGYDSAGLAVVDAEGHMTRLRRLGKVQMLAQAAEEHPLHGGTGIAHTRWATHGEPSEANAHPHVSEHIVVVHNGIIENHEPLREALKARGYTFVSETDTEVIAHLVNWELKQGGTLREAVLRAIPQLRGAYGTVIMDTRHPDTLLAARSGSPLVIGLGMGENFIASDQLALLPVTRRFIFLEEGDIAEITRRSVNIFDNTGAEVKRQDIESNLQYDAGDKGIYRHYMQKEIYEQPNAIKNTLTGRISHGQVDLSELGPNADELLSKVEHIQILACGTSYNSGMVSRYWFESLAGIPCDVEIASEFRYRKSAVRRNSLMITLSQSGETADTLAGLRLSKELGYLGSLAICNVPGSSLVRESDLALMTNAGTEIGVASTKAFTTQLTVLLMLVAKLSRLKGLDASIEHDIVHGLQALPSRIEQMLSQDKRIELLAEDFSDKHHALFLGRGDQYPIALEGALKLKEISYIHAEAYAAGELKHGPLALIDADMPVIVVAPNNELLEKLKSNIEEVRARGGQLYVFADQDAGFVSNDNMHIIEMPHVEEVIAPIFYTVPLQLLAYHVALIKGTDVDQPRNLAKSVTVE
notes: D-glucosamine-6-phosphate synthase (GlmS), Salmonella Typhimurium; 128 kDa dimer by SEC-MALS; it may be the same as m7; also called GlmS dimer

What was measured:
[1] = target: GlmS in solution (SEC-MALS) (Salmonella Typhimurium) (UniProt Q8ZKX1); assay: SEC-MALS; Superdex 200 10/300 GL, 20 mM Tris-HCl pH 8.0, 300 mM NaCl, 2 mg protein injected, 0.5 ml/min; proteins alone or in combination
[2] = target: the molecule itself; assay: as above

Molecule | stoichiometry N (EIIA^Ntr per GlmS chain (1:2)) [1] | stoichiometry N [2]
EIIA^Ntr in solution (SEC-MALS) (natural protein) | 0.5 | 
B1 |  | 2
